# In patent US8026218 (UNIVERSITY OF ARIZONA, dated 2011):
# Read-outs that look alike come from different tables or passages of the source. Square brackets hold non-standard residues; d marks the D form. Ends that are not written are not given here. * marks the point of attachment. O‑Bzl(CF3)2 = C-terminal bis(trifluoromethyl)benzyl ester; OBzl(3,5-(CF3)2) = FC(F)(F)c1cc(CO*)cc(C(F)(F)F)c1; Phe(4-F) = N[C@@H](Cc1ccc(F)cc1)C(=O)O; Dmt = Cc1cc(O)cc(C)c1C[C@H](N)C(=O)O
# B1: DmtDAlaGlyPheNleProLeuTrpNMeBn(CF3)2 (peptide)
# peptide: YAGFXPLW
# modifications: Dmt at 1 (written Y); D-Ala at 2; Nle at 5 (written X); C-terminal NMe-3,5-Bzl(CF3)2 amide
# notes: also called TY052
# B2: DmtDAlaGlyPheNleProLeuTrpNHBn-2,4-(OMe)2 (peptide)
# peptide: YAGFXPLW
# modifications: not fully specified; Dmt at 1 (written Y); D-Ala at 2; Nle at 5 (written X); C-terminal dimethoxybenzyl amide (NHBn-2,4-(OMe)2 in Table 39, NH-3,5-Bn(OMe)2 in Table 31)
# notes: also called TY054
# Key:
# [1] = target: T1, human NK1 receptor (human, UniProt P25103 1-407); experiment: competition vs [3H]Substance P, hNK1 CHO cell membranes
# T1 construct: whole, on cells; membrane preparations of the transfected cells were used; also called hNK1; human neurokinin-1 receptor
# [2] = target: T2, human δ opioid receptor (human, UniProt P41143 1-372); experiment: competition vs [3H]DPDPE, hDOR cell membranes
# T2 construct: whole, on cells; membrane preparations of the transfected cells were used; also called hDOR; DOR
# [3] = target: T3, rat NK1 receptor (rat, UniProt P14600 1-407); experiment: competition vs [3H]Substance P, rNK1 CHO cell membranes
# T3 construct: whole, on cells; membrane preparations of the transfected cells were used; also called rNK1; rNK-1
# [4] = target: µ opioid receptor of the guinea pig isolated ileum (guinea pig, UniProt P97266 1-98); experiment: cell-based or functional assay
# Target sequence in this assay (P97266 whole entry): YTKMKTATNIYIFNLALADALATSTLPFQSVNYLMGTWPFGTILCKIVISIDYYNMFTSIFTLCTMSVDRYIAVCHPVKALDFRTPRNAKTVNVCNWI
# [5] = target: guinea pig NK1 receptor (guinea pig, UniProt P30547 1-407); experiment: cell-based or functional assay
# [6] = target: T4, µ opioid receptor of the guinea pig isolated ileum (guinea pig, UniProt P97266 1-98); experiment: cell-based or functional assay; remark: listed apart in the source
# T4 sequence (P97266 whole entry): as above
# [7] = target: T4, µ opioid receptor of the guinea pig …; experiment: cell-based or functional assay; remark: listed apart in the source
# [8] = target: T1, human NK1 receptor; experiment: competition vs [3H]Substance P, hNK1 CHO cell membranes; remark: listed apart in the source
# [9] = target: T2, human δ opioid receptor; experiment: competition vs [3H]DPDPE, hDOR cell membranes; remark: listed apart in the source
# T1 sequence (P25103 whole entry): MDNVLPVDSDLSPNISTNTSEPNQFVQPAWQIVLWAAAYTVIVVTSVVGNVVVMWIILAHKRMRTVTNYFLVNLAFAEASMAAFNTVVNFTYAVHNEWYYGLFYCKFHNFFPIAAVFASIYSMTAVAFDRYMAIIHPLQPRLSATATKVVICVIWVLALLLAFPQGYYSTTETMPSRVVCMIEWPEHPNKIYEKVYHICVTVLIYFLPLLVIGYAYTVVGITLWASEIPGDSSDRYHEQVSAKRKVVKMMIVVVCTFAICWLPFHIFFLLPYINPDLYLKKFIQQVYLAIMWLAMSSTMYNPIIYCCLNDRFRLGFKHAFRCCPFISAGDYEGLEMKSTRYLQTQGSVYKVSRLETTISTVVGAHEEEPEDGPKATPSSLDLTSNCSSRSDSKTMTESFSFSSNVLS
# T2 sequence (P41143 whole entry, stated change not applied): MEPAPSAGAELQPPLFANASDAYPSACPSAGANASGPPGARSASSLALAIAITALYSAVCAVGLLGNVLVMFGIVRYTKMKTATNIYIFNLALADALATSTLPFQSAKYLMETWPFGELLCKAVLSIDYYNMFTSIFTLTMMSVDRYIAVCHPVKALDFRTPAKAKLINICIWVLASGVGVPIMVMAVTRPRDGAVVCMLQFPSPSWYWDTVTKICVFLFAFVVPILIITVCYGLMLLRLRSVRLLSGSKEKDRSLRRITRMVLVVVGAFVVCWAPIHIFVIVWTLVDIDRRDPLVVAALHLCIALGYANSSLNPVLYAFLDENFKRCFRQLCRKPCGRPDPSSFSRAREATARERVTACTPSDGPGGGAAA
# Chain of guinea pig NK1 receptor (P30547 whole entry): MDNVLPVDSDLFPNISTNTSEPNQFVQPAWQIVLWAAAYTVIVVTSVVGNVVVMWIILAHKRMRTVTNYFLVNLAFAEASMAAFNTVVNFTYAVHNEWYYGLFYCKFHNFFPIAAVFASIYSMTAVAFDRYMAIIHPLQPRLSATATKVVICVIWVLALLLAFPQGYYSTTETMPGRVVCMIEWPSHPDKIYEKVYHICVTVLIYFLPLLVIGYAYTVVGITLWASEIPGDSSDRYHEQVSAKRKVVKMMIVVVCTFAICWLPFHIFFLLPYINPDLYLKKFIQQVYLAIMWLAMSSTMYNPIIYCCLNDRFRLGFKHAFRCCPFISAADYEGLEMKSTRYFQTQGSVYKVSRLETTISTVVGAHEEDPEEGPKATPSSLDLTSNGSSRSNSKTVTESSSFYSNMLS
# T3 sequence (P14600 whole entry): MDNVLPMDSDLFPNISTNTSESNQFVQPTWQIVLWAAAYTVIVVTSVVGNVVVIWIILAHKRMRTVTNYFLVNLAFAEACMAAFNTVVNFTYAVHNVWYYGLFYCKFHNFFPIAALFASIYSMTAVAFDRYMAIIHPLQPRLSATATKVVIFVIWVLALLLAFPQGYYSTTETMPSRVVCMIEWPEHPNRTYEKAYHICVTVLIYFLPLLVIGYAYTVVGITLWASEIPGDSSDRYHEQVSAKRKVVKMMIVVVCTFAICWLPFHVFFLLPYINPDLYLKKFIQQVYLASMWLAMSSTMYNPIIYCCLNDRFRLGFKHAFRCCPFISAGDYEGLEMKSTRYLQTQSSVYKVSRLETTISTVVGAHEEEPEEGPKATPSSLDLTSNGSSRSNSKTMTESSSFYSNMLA
binder,measurement,setting,value
"[Dmt][dA]GFMPLW-{OBzl(3,5-(CF3)2)} (also called TY033) [DmtDAlaGlyPheMetProLeuTrpOBn(CF3)2]",Ki,[1],1.2 nM
same,Ki,[2],0.22 nM
same,Ki,[3],0.96 nM
same,GPI/LMMP IC50,[4],100 nM
same,GPI/LMMP Substance P antagonist Ke,[5],24.5 nM
Y[dA]GFLW-{O‑Bzl(CF3)2} [Tyr-DAla-Gly-Phe-Leu-Trp-O-Bzl(CF3)2 (NP37)],GPI/LMMP µ-agonist IC50,[6],45.4 nM
Y[dA]GFMW-{O‑Bzl(CF3)2} [Tyr-DAla-Gly-Phe-Met-Trp-O-Bzl(CF3)2 (NP38)],GPI/LMMP µ-agonist IC50,[6],393 nM
Y[dA]GFPW-{O‑Bzl(CF3)2} [Tyr-DAla-Gly-Phe-Pro-Trp-O-Bzl(CF3)2 (NP39)],GPI/LMMP µ-agonist IC50,[6],259 nM
"Y[dA]GFW-{OBzl(3,5-(CF3)2)} [Tyr-D-Ala-Gly-Phe-Trp-O-3′,5′(CF3)2-Bzl (NP36)]",GPI µ-agonist IC50,[7],523 nM
"Y[dA]GW-{OBzl(3,5-(CF3)2)} [Tyr-D-Ala-Gly-Trp-O-3′,5′(CF3)2-Bzl (NP44)]",GPI µ-agonist IC50,[7],844 nM
"Y[dA]G[Phe(4-F)]-{OBzl(3,5-(CF3)2)} [Tyr-D-Ala-Gly-pFPhe-O-3′,5′(CF3)2-Bzl (NP62)]",GPI µ-agonist IC50,[7],208 nM
B1,Ki,[8],0.21 nM
same,Ki,[9],0.46 nM
B2,Ki,[8],0.95 nM
same,Ki,[9],0.15 nM
